Reference: patent publication US20080113907A1, “Uses Of Galectin-2” (Charite-Universitat-Smedizin Berlin, priority 2004, published 2008)

How the values were obtained:
T cells (PBT, LPT) = test: Adhesion assay to collagen type I and fibronectin; type: cell-based, human
Protocol: 96 well flat-bottom plates were precoated overnight at 4° C. with 12 μg/well fibronectin (Chemicon) in DPBS, 40 μg/well collagen type I (Sigma-Aldrich) in 0.1 M acetic acid, or 3% BSA (Sigma-Aldrich) in DPBS as a control and then washed three times with DPBS. Freshly isolated T cells were fluorescently-labelled with 5 μM calcein-AM (Molecular Probes, Eugene, Oreg.) for 30 min at 37° C. in 5% CO2 at 5×10^6 cells/ml in RPMI. The cells were then washed three times with RPMI containing 5% FCS. Calcein-labelled T cells were resuspended in RPMI and 5×10^5 T cells/well were added to 96-well plates containing purified ECM components or BSA for the indicated times. Saturating concentrations of integrin-blocking mAbs (predetermined by flow cytometry) were preincubated with T cells for 30 min at 37° C. before adding T cells to the wells for the adhesion assay. Nonadherent cells were removed by a standardized washing technique that was developed to minimize background binding, which includes both an orbital and a rocking motion repeated three times with RPMI. Adhesion was quantified with a multiwell fluorescent spectrophotometer (Tecan, Groedig, Austria). For each experimental group the results were expressed as the mean percentage±SD of bound T cells from triplicate wells.

[1] = system: dextran sodium sulfate induced colitis; test: Prevention of DSS induced acute colitis, disease activity index (DAI); type: in vivo, Balb/c mice
Protocol: Colitis was induced in 8- to 10-week-old, female, Balb/c mice (Jackson Laboratories, Bar Harbor, Me.) by adding 5% DSS (Sigma Chemical Co., St. Louis, Mo.) (Dextran Sodiumsulfate (DSS) to their drinking water and allowing them to drink ad libitum. Groups of mice were treated either with 1 mg/kg BW (body weight) galectin-2 intraperitoneally or PBS 2 h before DSS administration. Mice were weighed and inspected for diarrhea and rectal bleeding. Seven days after induction of colitis by DSS, mice were killed, their entire colon was resected, and its length was measured and weighed. The disease activity index (DAI; i.e., the combined score of weight loss and bleeding) was determined according to a standard scoring system.
The disease activity index: Loss in bodyweight: 0=no loss; 1=5% to 10%; 2=10% to 15%; 3=15% to 20%; 4 ? 20%.
Hemoccult: 0=no blood; 2=positive; 4=gross blood.
In this experiment the DAI ranges from 0 to 8. The higher the DAI score the more severely the animal had been affected by colitis.
Colitis was induced in 8- to 10-week-old, female, Balb/c mice (Jackson Laboratories, Bar Harbor, Me.) by adding 5% DSS (Sigma Chemical Co., St. Louis, Mo.) (Dextran Sodiumsulfate (DSS) to their drinking water and allowing them to drink ad libitum. Groups of respectively 10 mice were treated either with Galectin-2 subcutaneously (s.c.) or intraperitoneally (i.p.) 2 h before DSS administration. In one trial with 10 mice the doses of Galectin-2 was doubled (administered i.p.) and compared to the treatment of 10 mice with Tacrolimus (FK506) (administered i.p.) in equal concentrations. In parallel a group of 10 mice was treated with 0.9% NaCl instead of Galectin-2 as control. Mice were weighed and inspected for diarrhea and rectal bleeding. 10 days after induction of colitis by DSS, mice were killed, their entire colon was resected, and its length was measured and weighed. The disease activity index (DAI; i.e., the combined score of weight loss and bleeding) was determined according to a standard scoring system.
The disease activity index: Loss in body weight: 0=no loss; 1=5% to 10%; 2=10% to 15%; 3=15% to 20%; 4 ? 20%.

CD3, CD7, β1 integrin = test: Magnetic separation / co-immunoprecipitation of galectin containing complexes; type: binding, human; conditions: galectin coated beads, immunoblot for CD3, CD7, β1
Protocol: For immunoblotting cells were washed in PBS, and lysed in cell lysis buffer (1% Triton-X, 0.5% NP-40, 0.1% SDS, 0.5% sodium deoxycholate, 5 mM EDTA, 50 mM and 50 mM protease- and phosphatase-inhibitor cocktail 2, 1 mM PMSF, 100 μg/ml trypsin-chymotrypsin inhibitor, 100 μg/ml chymostatin in PBS). The concentration of proteins in each lysate was measured using the Bio-Rad protein assay (Bio-Rad Laboratories, Hercules, Calif.). Equivalent amounts of protein (10 μg) were fractionated on a 10-20% Tris-glycine gel and electrotransferred to a nitrocellulose membrane (Novex, San Diego, Calif.). Membranes were blocked with 5% milk in 0.1% Tween 20-PBS (Fisher Scientific, Hanover Park, Ill.), followed by incubation for 60 m in at room temperature with the indicated primary antibody. The membranes were washed six times with 0.1% Tween 20-PBS and then incubated for 1 h with the appropriate horseradish peroxidase-conjugated secondary antibody (Santa Cruz Biotechnology), washed, and incubated with the chemiluminescent substrate (Perkin-Elmer, Carlsbad, Calif.) for 5 minutes. The membranes were then exposed to film (Amersham, Arlington Heights, Ill.). […]

B1: galectin-2: β-galactoside binding lectin, non-covalent dimer with subunits of about 14 kDa; recombinant human or rat (SEQ ID NO:1, 2) (protein)
chain: MAGELEVKNMDMKPGSTLKITGSIADGTDGFVINLGQGTDKLNLHFNPRFSESTIVCNSLDGSNWGQEQREDHLCFSPGSEVKFTVTFESDKFKVKLPDGHELTFPNRLGHSHLSYLSVRGGFNMSSFKLKE
- cells adhering to collagen type I (T cells (PBT, LPT); CD3 activated PBT, without galectin 22.1±3.5%): 15.1±5.6%
- cells adhering to fibronectin (T cells (PBT, LPT); CD3 activated PBT, without galectin 26.3±5.6%): 39.8±4.9%
- attachment to fibronectin (T cells (PBT, LPT); LPT): increasing
- cell adhesion to collagen (T cells (PBT, LPT); LPT): inhibited
- DAI (disease activity index) ([1]; 1 mg/kg BW i.p. 2 h before DSS, seven days after induction, mean ± SD, DAI 0 to 8, control 6.3 ± 2.30): 4.5 ± 2.1,
- DAI (disease activity index) ([1]; 1 mg/kg i.p., 10 days after induction, control 6.5 ± 0.3): 5.0 ± 0.7,
- DAI (disease activity index) ([1]; 1 mg/kg s.c., 10 days after induction, control 6.5 ± 0.3): 5.8 ± 0.7,
- DAI (disease activity index) ([1]; 2 mg/kg i.p., 10 days after induction, control 6.5 ± 0.3): 2.6 ± 0.6,
- glycoproteins co-immunoprecipitated (CD3, CD7, β1 integrin): coimmunoprecipitate only with integrin β1
